PMC8718552 (Frontiers in Immunology, 2021)

Tests used:
[1] = target: CD14 on human CD14+ monocytes (UniProt P08571); assay: flow cytometry on cells
[2] = target: SARS-CoV-2 ORF8 (S84) (71–76) A mutant (SARS-CoV-2) (UniProt P0DTC8); assay: SEC
[3] = target: SARS-CoV-2 ORF8 (S84) Ig-like domain (SARS-CoV-2) (UniProt P0DTC8); assay: SEC
[4] = target: SARS-CoV-2 ORF8 (S84) Ig-like domain (SARS-CoV-2) (UniProt P0DTC8); assay: non-reducing SDS-PAGE
[5] = target: the molecule itself; assay: non-reducing SDS-PAGE

Sequence of CD14 on human CD14+ monocytes (P08571 20-345): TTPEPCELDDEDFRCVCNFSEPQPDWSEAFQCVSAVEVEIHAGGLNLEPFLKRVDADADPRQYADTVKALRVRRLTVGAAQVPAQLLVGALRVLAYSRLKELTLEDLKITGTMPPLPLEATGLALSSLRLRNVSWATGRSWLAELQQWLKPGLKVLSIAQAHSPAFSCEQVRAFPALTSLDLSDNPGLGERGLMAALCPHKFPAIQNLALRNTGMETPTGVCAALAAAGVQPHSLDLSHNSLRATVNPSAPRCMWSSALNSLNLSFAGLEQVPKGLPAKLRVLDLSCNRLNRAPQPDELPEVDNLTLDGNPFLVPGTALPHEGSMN

SARS-CoV-2 ORF8 (L84) Ig-like domain (from UniProt P0DTC8) L84S
response ([1]; parent: 48.7): 37.7% | response ([1]; parent: 51.8): 32.7% | response ([1]; parent: 54.1): 32.7% | response ([1]; parent: 68.0): 47.9% | response ([1]; parent: est. 56, read off a plot): 38%

SARS-CoV-2 ORF8 (S84) (71–76) A mutant (from UniProt P0DTC8 16-121) (domain or fragment)
stoichiometry N [2]: 2

SARS-CoV-2 ORF8 (S84) Ig-like domain (from UniProt P0DTC8 16-121) (domain or fragment)
stoichiometry N [3]: 2 | stoichiometry N [4]: 2

B1: SARS-CoV-2 ORF8 (L84) (71–76) A (domain or fragment)
chain: FHQECSLQSCTQHQPYVVDDPCPIHFYSKWYIRVGARKSAPLIELCVDEAGSKSPAAAAAAGNYTVSCLPFTINCQEPKLGSLVVRCSFYEDFLEYHDVRVVLDFI
binding result [5]: binds
